Test results published in the supplement of paper PMC6757056.
± gives the standard deviation of the averaged measurements.

B1: library; a variant is named by its letters at N, in order (parent)
chain: GCUGUCACCGGUGCUUGGUACGUUAUAUUCAGCCGGUCUGAUGAGUCUNNNNNNAGACGAAACAGC

Legend:
(6R,S)-folinic acid [1] = variants of: B1; test: normalized RNA/DNA level without ligand (relative to sTRSVctl = 100) (log10 (% of sTRSVctl)); HEK293T overexpressing SLC46A1; higher = less ribozyme self-cleavage, higher mRNA level; details: without (6R,S)-folinic acid; ligand present: no
How it was run: (§1)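 Total RNA, extracted with EDTA 72 h after HEK293T cells were transfected with 4 µg per 6-well well of reporter-linked ribozyme switch library plasmids, was reverse-transcribed, amplified, barcoded and sequenced. Ligand, if used, was added 1 h before transfection. RNA level was derived from RNA reads divided by DNA reads and normalized to a spiked-in non-cleaving sequence or to the top sequences. This was multiplied by 100 and log10-transformed, with the top set of 25 sequences and a ≥100 DNA read minimum.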

(6R,S)-folinic acid [2] = variants of: B1; test: normalized RNA/DNA level with ligand (relative to sTRSVctl = 100) (log10 (% of sTRSVctl)); HEK293T overexpressing SLC46A1; ligand concentration (+) RNA-Seq: 6 mM; higher = less ribozyme self-cleavage, higher mRNA level; details: with (6R,S)-folinic acid; ligand present: yes
How it was run: as §1

Variant	normalized RNA/DNA level without ligand (log10) ((6R,S)-folinic acid [1])	normalized RNA/DNA level with ligand (log10) ((6R,S)-folinic acid [2])
GCUGUCACCGGUGCUUGGUACGUUAUAUUCAGCCGGUCUGAUGAGUCUCAUAGGAGACGAAACAGC	1.911 ± 0.019	1.998 ± 0.0083
GCUGUCACCGGUGCUUGGUACGUUAUAUUCAGCCGGUCUGAUGAGUCUCAUAGUAGACGAAACAGC	2.003 ± 0.013	2.025 ± 0.0053
GCUGUCACCGGUGCUUGGUACGUUAUAUUCAGCCGGUCUGAUGAGUCUCAUCGGAGACGAAACAGC	1.99 ± 0.024	2.02 ± 0.026
GCUGUCACCGGUGCUUGGUACGUUAUAUUCAGCCGGUCUGAUGAGUCUCAUCGAAGACGAAACAGC	2.045 ± 0.0027	2.06 ± 0.026
GCUGUCACCGGUGCUUGGUACGUUAUAUUCAGCCGGUCUGAUGAGUCUGAUCAGAGACGAAACAGC	2.03 ± 0.041	2.05 ± 0.028
GCUGUCACCGGUGCUUGGUACGUUAUAUUCAGCCGGUCUGAUGAGUCUGAUCAUAGACGAAACAGC	2.023 ± 0.008	2.02 ± 0.026
GCUGUCACCGGUGCUUGGUACGUUAUAUUCAGCCGGUCUGAUGAGUCUGAUCACAGACGAAACAGC	2.03 ± 0.031	2.034 ± 0.0087
GCUGUCACCGGUGCUUGGUACGUUAUAUUCAGCCGGUCUGAUGAGUCUGAUCAAAGACGAAACAGC	2.001 ± 0.0021	2 ± 0.027
GCUGUCACCGGUGCUUGGUACGUUAUAUUCAGCCGGUCUGAUGAGUCUAAUCGAAGACGAAACAGC	1.974 ± 0.019	2 ± 0.029
GCUGUCACCGGUGCUUGGUACGUUAUAUUCAGCCGGUCUGAUGAGUCUUAUCGCAGACGAAACAGC	2.014 ± 0.0075	2.03 ± 0.043
GCUGUCACCGGUGCUUGGUACGUUAUAUUCAGCCGGUCUGAUGAGUCUUAUCGAAGACGAAACAGC	1.927 ± 0.0098	2 ± 0.028
GCUGUCACCGGUGCUUGGUACGUUAUAUUCAGCCGGUCUGAUGAGUCUCAUCAUAGACGAAACAGC	2.02 ± 0.052	2 ± 0.072
GCUGUCACCGGUGCUUGGUACGUUAUAUUCAGCCGGUCUGAUGAGUCUCAUCAGAGACGAAACAGC	1.97 ± 0.039	1.97 ± 0.021
GCUGUCACCGGUGCUUGGUACGUUAUAUUCAGCCGGUCUGAUGAGUCUCAUCAAAGACGAAACAGC	1.977 ± 0.0041	1.97 ± 0.021
GCUGUCACCGGUGCUUGGUACGUUAUAUUCAGCCGGUCUGAUGAGUCUCAUCACAGACGAAACAGC	2.03 ± 0.0083	2 ± 0.071
GCUGUCACCGGUGCUUGGUACGUUAUAUUCAGCCGGUCUGAUGAGUCUCAUCCCAGACGAAACAGC	2.063 ± 0.0042	2.041 ± 0.011
GCUGUCACCGGUGCUUGGUACGUUAUAUUCAGCCGGUCUGAUGAGUCUCAUCCAAGACGAAACAGC	2.028 ± 0.006	1.99 ± 0.036
GCUGUCACCGGUGCUUGGUACGUUAUAUUCAGCCGGUCUGAUGAGUCUCAUCCGAGACGAAACAGC	2.083 ± 0.013	2.05 ± 0.028
GCUGUCACCGGUGCUUGGUACGUUAUAUUCAGCCGGUCUGAUGAGUCUCAUCCUAGACGAAACAGC	2.06 ± 0.013	2.08 ± 0.058
GCUGUCACCGGUGCUUGGUACGUUAUAUUCAGCCGGUCUGAUGAGUCUGAUCCCAGACGAAACAGC	2.06 ± 0.033	2.0517 ± 0.00022
